Here are results for one molecule from article PMC4630568, “Arabidopsis LEAFY COTYLEDON1 controls cell fate determination during post-embryonic development” (Frontiers in Plant Science, 2015).

The target of the assay is T1, His-LEC1 (LEAFY COTYLEDON1) (Arabidopsis, UniProt Q9SFD8 1-238).
T1 construct: LEAFY COTYLEDON1 (LEC1), NF-Y transcription factor, Arabidopsis, AT1G21970; Vector pQE30; source: E. coli Rosetta DE3, purified (Ni-nitrilotriacetic acid agarose beads)
T1 sequence (looked up): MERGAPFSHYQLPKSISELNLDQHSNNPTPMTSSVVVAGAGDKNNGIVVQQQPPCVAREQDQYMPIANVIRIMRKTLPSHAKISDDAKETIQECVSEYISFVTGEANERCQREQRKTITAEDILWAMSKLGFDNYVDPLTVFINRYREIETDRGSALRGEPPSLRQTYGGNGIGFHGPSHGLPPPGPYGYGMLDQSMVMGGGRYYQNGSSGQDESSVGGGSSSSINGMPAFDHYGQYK
The assay can be described thus: pull-down; 2 μg of His-LEC1 or His-GFP incubated with immobilized GST or GST fusion proteins; 50 mM Tris-HCl pH 8.0, 100 mM NaCl, 1 mM EDTA; 4°C, 4 h; detected with an anti-His antibody. Particulars: both partners purified.

B1: GST-TCL2 (TRICHOMELESS2) (natural protein, Arabidopsis, UniProt B3H4X8 1-100, looked up)
chain: MDNTNRLRHLRSRKQSKFTLGDTAEVNSVKWEFINMTEQEEDLIFRMHRLVGDRWDLIAGRVVGREAKDIERYWIMRNCDHCSHKRRRVHKFYRFSISPP
notes: TCL2, single-repeat R3 MYB protein, Arabidopsis, AT2G30424; Vector pGEX-4T-1; source: E. coli Rosetta DE3, purified (glutathione sepharose beads)
Consider B1, for which the binding result is “binds”.
